Measured values reported in the Human Domainome abundance scans (Beltran et al. 2025).
± gives the uncertainty stated by the source.

B1: Retinoic acid receptor beta, residues 85 to 161; numbered along this chain, P10826 (parent)
chain: YKPCFVCQDKSSGYHYGVSACEGCKGFFRRSIQKNMIYTCHRDKNCVINKVTRNRCQYCRLQKCFEVGMSKESVRND

Variants of: B1
Assay: abundance fitness (aPCA) (normalised: wild type 0, dead -1); higher = more abundant; growth selection in yeast, the domain comes from the species named
Conditions: Homo sapiens

Variant | abundance fitness
YKPCFVCQDKSSGYHYGVSACEGCKGFFRRSIQKNMIYTCHRDKNCVINKVTRNRCQYCRLQKCFEVGMSHESVRND [K71H] | -0.24 ± 0.12
YKPCFVCQDKSSGYHYGVSACEGCKGFFRRSIQKNMIYTCHRDKNCVINKVTRNRCQYCRLQKCFEVGMSMESVRND [K71M] | -0.104 ± 0.054
YKPCFVCQDKSSGYHYGVSACEGCKGFFRRSIQKNMIYTCHRDKNCVINKVTRNRCQYCRLQKCFEVGMSTESVRND [K71T] | 0.067 ± 0.067
YKPCFVCQDKSSGYHYGVSACEGCKGFFRRSIQKNMIYTCHRDKNCVINKVTRNRCQYCRLQKCFEVGMSYESVRND [K71Y] | -0.216 ± 0.1
YKPCFVCQDKSSGYHYGVSACEGCKGFFRRSIQKNMIYTCHRDKNCVINKVTRNRCQYCRLQKCFEVGMSSESVRND [K71S] | -0.005 ± 0.051
YKPCFVCQDKSSGYHYGVSACEGCKGFFRRSIQKNMIYTCHRDKNCVINKVTRNRCQYCRLQKCFEVGMSLESVRND [K71L] | -0.027 ± 0.042
YKPCFVCQDKSSGYHYGVSACEGCKGFFRRSIQKNMIYTCHRDKNCVINKVTRNRCQYCRLQKCFEVGMSRESVRND [K71R] | -0.102 ± 0.041
YKPCFVCQDKSSGYHYGVSACEGCKGFFRRSIQKNMIYTCHRDKNCVINKVTRNRCQYCRLQKCFEVGMSNESVRND [K71N] | -0.04 ± 0.095
YKPCFVCQDKSSGYHYGVSACEGCKGFFRRSIQKNMIYTCHRDKNCVINKVTRNRCQYCRLQKCFEVGMSPESVRND [K71P] | -0.154 ± 0.089
YKPCFVCQDKSSGYHYGVSACEGCKGFFRRSIQKNMIYTCHRDKNCVINKVTRNRCQYCRLQKCFEVGMSDESVRND [K71D] | -0.085 ± 0.066
YKPCFVCQDKSSGYHYGVSACEGCKGFFRRSIQKNMIYTCHRDKNCVINKVTRNRCQYCRLQKCFEVGMSVESVRND [K71V] | -0.151 ± 0.041
YKPCFVCQDKSSGYHYGVSACEGCKGFFRRSIQKNMIYTCHRDKNCVINKVTRNRCQYCRLQKCFEVGMSIESVRND [K71I] | -0.078 ± 0.099
YKPCFVCQDKSSGYHYGVSACEGCKGFFRRSIQKNMIYTCHRDKNCVINKVTRNRCQYCRLQKCFEVGMSQESVRND [K71Q] | -0.007 ± 0.072
YKPCFVCQDKSSGYHYGVSACEGCKGFFRRSIQKNMIYTCHRDKNCVINKVTRNRCQYCRLQKCFEVGMSAESVRND [K71A] | -0.027 ± 0.053
YKPCFVCQDKSSGYHYGVSACEGCKGFFRRSIQKNMIYTCHRDKNCVINKVTRNRCQYCRLQKCFEVGMSWESVRND [K71W] | -0.139 ± 0.045
YKPCFVCQDKSSGYHYGVSACEGCKGFFRRSIQKNMIYTCHRDKNCVINKVTRNRCQYCRLQKCFEVGMSCESVRND [K71C] | -0.148 ± 0.072
YKPCFVCQDKSSGYHYGVSACEGCKGFFRRSIQKNMIYTCHRDKNCVINKVTRNRCQYCRLQKCFEVGMSGESVRND [K71G] | -0.004 ± 0.038
YKPCFVCQDKSSGYHYGVSACEGCKGFFRRSIQKNMIYTCHRDKNCVINKVTRNRCQYCRLQKCFEVGMSEESVRND [K71E] | 0.103 ± 0.048
YKPCFVCQDKSSGYHYGVSACEGCKGFFRRSIQKNMIYTCHRDKNCVINKVTRNRCQYCRLQKCFEVGMSFESVRND [K71F] | -0.189 ± 0.087
YKPCFVCQDKSSGYHYGVSACEGCKGFFRRSIQKNMIYTCHRDKNCVINKVTRNRCQYCRLQKCFEVGMSKDSVRND [E72D] | 0.127 ± 0.059
YKPCFVCQDKSSGYHYGVSACEGCKGFFRRSIQKNMIYTCHRDKNCVINKVTRNRCQYCRLQKCFEVGMSKLSVRND [E72L] | -0.237 ± 0.051
YKPCFVCQDKSSGYHYGVSACEGCKGFFRRSIQKNMIYTCHRDKNCVINKVTRNRCQYCRLQKCFEVGMSKFSVRND [E72F] | -0.337 ± 0.13
YKPCFVCQDKSSGYHYGVSACEGCKGFFRRSIQKNMIYTCHRDKNCVINKVTRNRCQYCRLQKCFEVGMSKNSVRND [E72N] | 0.04 ± 0.07
YKPCFVCQDKSSGYHYGVSACEGCKGFFRRSIQKNMIYTCHRDKNCVINKVTRNRCQYCRLQKCFEVGMSKTSVRND [E72T] | -0.004 ± 0.064

Variant | abundance fitness
YKPCFVCQDKSSGYHYGVSACEGCKGFFRRSIQKNMIYTCHRDKNCVINKVTRNRCQYCRLQKCFEVGMSKWSVRND [E72W] | -0.271 ± 0.068
YKPCFVCQDKSSGYHYGVSACEGCKGFFRRSIQKNMIYTCHRDKNCVINKVTRNRCQYCRLQKCFEVGMSKKSVRND [E72K] | -0.191 ± 0.062
YKPCFVCQDKSSGYHYGVSACEGCKGFFRRSIQKNMIYTCHRDKNCVINKVTRNRCQYCRLQKCFEVGMSKSSVRND [E72S] | -0.037 ± 0.048
YKPCFVCQDKSSGYHYGVSACEGCKGFFRRSIQKNMIYTCHRDKNCVINKVTRNRCQYCRLQKCFEVGMSKQSVRND [E72Q] | -0.134 ± 0.075
YKPCFVCQDKSSGYHYGVSACEGCKGFFRRSIQKNMIYTCHRDKNCVINKVTRNRCQYCRLQKCFEVGMSKVSVRND [E72V] | -0.163 ± 0.048
YKPCFVCQDKSSGYHYGVSACEGCKGFFRRSIQKNMIYTCHRDKNCVINKVTRNRCQYCRLQKCFEVGMSKRSVRND [E72R] | -0.151 ± 0.043
YKPCFVCQDKSSGYHYGVSACEGCKGFFRRSIQKNMIYTCHRDKNCVINKVTRNRCQYCRLQKCFEVGMSKISVRND [E72I] | -0.184 ± 0.14
YKPCFVCQDKSSGYHYGVSACEGCKGFFRRSIQKNMIYTCHRDKNCVINKVTRNRCQYCRLQKCFEVGMSKHSVRND [E72H] | -0.117 ± 0.12
YKPCFVCQDKSSGYHYGVSACEGCKGFFRRSIQKNMIYTCHRDKNCVINKVTRNRCQYCRLQKCFEVGMSKPSVRND [E72P] | -0.101 ± 0.076
YKPCFVCQDKSSGYHYGVSACEGCKGFFRRSIQKNMIYTCHRDKNCVINKVTRNRCQYCRLQKCFEVGMSKGSVRND [E72G] | -0.128 ± 0.038
YKPCFVCQDKSSGYHYGVSACEGCKGFFRRSIQKNMIYTCHRDKNCVINKVTRNRCQYCRLQKCFEVGMSKMSVRND [E72M] | -0.098 ± 0.053
YKPCFVCQDKSSGYHYGVSACEGCKGFFRRSIQKNMIYTCHRDKNCVINKVTRNRCQYCRLQKCFEVGMSKASVRND [E72A] | -0.113 ± 0.048
YKPCFVCQDKSSGYHYGVSACEGCKGFFRRSIQKNMIYTCHRDKNCVINKVTRNRCQYCRLQKCFEVGMSKCSVRND [E72C] | -0.075 ± 0.081
YKPCFVCQDKSSGYHYGVSACEGCKGFFRRSIQKNMIYTCHRDKNCVINKVTRNRCQYCRLQKCFEVGMSKESMRND [V74M] | -0.027 ± 0.059
YKPCFVCQDKSSGYHYGVSACEGCKGFFRRSIQKNMIYTCHRDKNCVINKVTRNRCQYCRLQKCFEVGMSKESHRND [V74H] | -0.13 ± 0.15
YKPCFVCQDKSSGYHYGVSACEGCKGFFRRSIQKNMIYTCHRDKNCVINKVTRNRCQYCRLQKCFEVGMSKESRRND [V74R] | -0.188 ± 0.043
YKPCFVCQDKSSGYHYGVSACEGCKGFFRRSIQKNMIYTCHRDKNCVINKVTRNRCQYCRLQKCFEVGMSKESCRND [V74C] | 0.003 ± 0.064
YKPCFVCQDKSSGYHYGVSACEGCKGFFRRSIQKNMIYTCHRDKNCVINKVTRNRCQYCRLQKCFEVGMSKESGRND [V74G] | -0.081 ± 0.041
YKPCFVCQDKSSGYHYGVSACEGCKGFFRRSIQKNMIYTCHRDKNCVINKVTRNRCQYCRLQKCFEVGMSKESLRND [V74L] | -0.018 ± 0.041
YKPCFVCQDKSSGYHYGVSACEGCKGFFRRSIQKNMIYTCHRDKNCVINKVTRNRCQYCRLQKCFEVGMSKESNRND [V74N] | -0.067 ± 0.086
YKPCFVCQDKSSGYHYGVSACEGCKGFFRRSIQKNMIYTCHRDKNCVINKVTRNRCQYCRLQKCFEVGMSKESIRND [V74I] | 0.036 ± 0.062
YKPCFVCQDKSSGYHYGVSACEGCKGFFRRSIQKNMIYTCHRDKNCVINKVTRNRCQYCRLQKCFEVGMSKESDRND [V74D] | 0.094 ± 0.072
YKPCFVCQDKSSGYHYGVSACEGCKGFFRRSIQKNMIYTCHRDKNCVINKVTRNRCQYCRLQKCFEVGMSKESKRND [V74K] | -0.219 ± 0.065
YKPCFVCQDKSSGYHYGVSACEGCKGFFRRSIQKNMIYTCHRDKNCVINKVTRNRCQYCRLQKCFEVGMSKESQRND [V74Q] | -0.012 ± 0.066

Variant | abundance fitness
YKPCFVCQDKSSGYHYGVSACEGCKGFFRRSIQKNMIYTCHRDKNCVINKVTRNRCQYCRLQKCFEVGMSKESSRND [V74S] | -0.035 ± 0.048
YKPCFVCQDKSSGYHYGVSACEGCKGFFRRSIQKNMIYTCHRDKNCVINKVTRNRCQYCRLQKCFEVGMSKESPRND [V74P] | -0.068 ± 0.078
YKPCFVCQDKSSGYHYGVSACEGCKGFFRRSIQKNMIYTCHRDKNCVINKVTRNRCQYCRLQKCFEVGMSKESFRND [V74F] | -0.064 ± 0.081
YKPCFVCQDKSSGYHYGVSACEGCKGFFRRSIQKNMIYTCHRDKNCVINKVTRNRCQYCRLQKCFEVGMWKESVRND [S70W] | -0.417 ± 0.065
YKPCFVCQDKSSGYHYGVSACEGCKGFFRRSIQKNMIYTCHRDKNCVINKVTRNRCQYCRLQKCFEVGMVKESVRND [S70V] | 0.038 ± 0.044
YKPCFVCQDKSSGYHYGVSACEGCKGFFRRSIQKNMIYTCHRDKNCVINKVTRNRCQYCRLQKCFEVGMYKESVRND [S70Y] | -0.291 ± 0.098
YKPCFVCQDKSSGYHYGVSACEGCKGFFRRSIQKNMIYTCHRDKNCVINKVTRNRCQYCRLQKCFEVGMTKESVRND [S70T] | 0.067 ± 0.053
YKPCFVCQDKSSGYHYGVSACEGCKGFFRRSIQKNMIYTCHRDKNCVINKVTRNRCQYCRLQKCFEVGMSKEFVRND [S73F] | -0.016 ± 0.086
YKPCFVCQDKSSGYHYGVSACEGCKGFFRRSIQKNMIYTCHRDKNCVINKVTRNRCQYCRLQKCFEVGMSKEDVRND [S73D] | 0.133 ± 0.056
YKPCFVCQDKSSGYHYGVSACEGCKGFFRRSIQKNMIYTCHRDKNCVINKVTRNRCQYCRLQKCFEVGMSKEVVRND [S73V] | 0.001 ± 0.042
YKPCFVCQDKSSGYHYGVSACEGCKGFFRRSIQKNMIYTCHRDKNCVINKVTRNRCQYCRLQKCFEVGMSKEGVRND [S73G] | 0.017 ± 0.034
YKPCFVCQDKSSGYHYGVSACEGCKGFFRRSIQKNMIYTCHRDKNCVINKVTRNRCQYCRLQKCFEVGMSKEEVRND [S73E] | 0.091 ± 0.046
YKPCFVCQDKSSGYHYGVSACEGCKGFFRRSIQKNMIYTCHRDKNCVINKVTRNRCQYCRLQKCFEVGMSKEHVRND [S73H] | -0.061 ± 0.1
YKPCFVCQDKSSGYHYGVSACEGCKGFFRRSIQKNMIYTCHRDKNCVINKVTRNRCQYCRLQKCFEVGMSKETVRND [S73T] | -0.106 ± 0.065
YKPCFVCQDKSSGYHYGVSACEGCKGFFRRSIQKNMIYTCHRDKNCVINKVTRNRCQYCRLQKCFEVGMSKEAVRND [S73A] | 0.1 ± 0.043
YKPCFVCQDKSSGYHYGVSACEGCKGFFRRSIQKNMIYTCHRDKNCVINKVTRNRCQYCRLQKCFEVGMSKERVRND [S73R] | 0.016 ± 0.034
YKPCFVCQDKSSGYHYGVSACEGCKGFFRRSIQKNMIYTCHRDKNCVINKVTRNRCQYCRLQKCFEVGMSKEMVRND [S73M] | 0.092 ± 0.055
YKPCFVCQDKSSGYHYGVSACEGCKGFFRRSIQKNMIYTCHRDKNCVINKVTRNRCQYCRLQKCFEVGMSKEQVRND [S73Q] | -0.043 ± 0.057
YKPCFVCQDKSSGYHYGVSACEGCKGFFRRSIQKNMIYTCHRDKNCVINKVTRNRCQYCRLQKCFEVGMSKEWVRND [S73W] | -0.091 ± 0.046
YKPCFVCQDKSSGYHYGVSACEGCKGFFRRSIQKNMIYTCHRDKNCVINKVTRNRCQYCRLQKCFEVGMSKEYVRND [S73Y] | -0.231 ± 0.092
YKPCFVCQDKSSGYHYGVSACEGCKGFFRRSIQKNMIYTCHRDKNCVINKVTRNRCQYCRLQKCFEVGMSKEPVRND [S73P] | 0.002 ± 0.068
YKPCFVCQDKSSGYHYGVSACEGCKGFFRRSIQKNMIYTCHRDKNCVINKVTRNRCQYCRLQKCFEVGMSKEKVRND [S73K] | 0.131 ± 0.052
YKPCFVCQDKSSGYHYGVSACEGCKGFFRRSIQKNMIYTCHRDKNCVINKVTRNRCQYCRLQKCFEVGMSKELVRND [S73L] | 0.088 ± 0.04
